What was measured:
[1] = target: GST::bov-rPrP93-242 (rPrP27-30 + 1 octarepeat) (Bos taurus, UniProt P10279 P10279:93-242); test: EMSA; settings: tags: GST fusion, insect cells/baculovirus; label: 32P
[2] = target: GST::bov-rPrP25-242 (rPrPc) (Bos taurus, UniProt P10279 P10279:25-242); test: EMSA; settings: tags: GST fusion, insect cells/baculovirus; label: 32P

B1: Ap1 motif I 60mer (ssRNA)
RNA: GCAAUGCGUUGUGUGGGAAUUUGAGGGACGAUGGGGAAGUGGGGACGAAUGACUCAUUGC
binding result [1]: no binding
binding result [2]: binds

B2: Ap2 motif II (ssRNA)
RNA: GGAGCUCAGCCUUCACUGCUACCUUAGAGUAGGAGCGGGACGAGGGGUUGUUGGGACGUGGGUAUGAUCCAUACAUUAGGAAGCUGGUGAGCUGGCACCACGGUCGGAUCCAC
binding result [1]: no binding
binding result [2]: binds

Reference: patent publication US20030119019 (published 2003)
